Results taken from the supplement of paper PMC10567573.
± gives the standard deviation.

Test: protein stability index of a GFP-peptide fusion (GPS, HEK-293T) (PSI 1-6); higher = more stable
[1] = treatment: DMSO, c terminus: a fixed tail appended
[2] = treatment: MLN4924 1 uM, 8 h, c terminus: a fixed tail appended
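Further: 24-mer peptide tiles fused after GFP, lentivirally expressed, FACS-sorted into six equal bins by GFP/DsRed ratio, decoded by Illumina sequencing, PSI is the read-weighted mean bin number.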

| Sequence | protein stability index [1] | protein stability index [2] | protein stability index (treatment: DMSO, c terminus: native) | protein stability index (treatment: MLN4924 1 uM, 8 h, c terminus: native) |
| --- | --- | --- | --- | --- |
| PGRGVYLLKFDNSYSLWRSKSVYY [ACBD3] | 2.78 ± 0.52 | 2.69 ± 0.76 | – | – |
| PKAKAKAKAKAKDQTKAQAAAPAS [RPL29] | 5.2 ± 0.22 | 5.21 ± 0.072 | – | – |
| PKTMSQKEMEQLFSQYGRIITSRI [ELAVL3] | 2.68 ± 0.18 | 2.76 ± 0.35 | – | – |
| PLDMFSEEIKFYELGEEAMEKFRE [KCNA1] | 4.71 ± 0.31 | 4.85 ± 0.12 | – | – |
| PLPAGSLPPYPPYFEGAPFPHPLW [PWWP2B] | 2.58 ± 0.31 | 2.64 ± 0.37 | – | – |
| PLSPPPINYNGIFSLKQEETLDYG [NEUROD6] | 4.63 ± 0.38 | 4.36 ± 0.37 | – | – |
| PNYEFKLGKITFIRNSRPLVKKVE [UFD1] | 2.62 ± 0.5 | 2.77 ± 0.35 | – | – |
| PPALQNNLLSPLLTGTESPFDLEQ [NFE2L1] | 4.97 ± 0.29 | 5.04 ± 0.1 | – | – |
| PPARPRPRSPECRMIPGQPPASAR [IRX6] | 4.95 ± 0.21 | 4.9 ± 0.12 | – | – |
| PPFMIALACLHVACVVQQKDARQW [CCNC] | 3.3 ± 0.18 | 3.08 ± 0.35 | – | – |
| PPKSVNPTCMCCQATSSTACHIQ [FAM219A] | – | – | 2.92 ± 0.29 | 3.07 ± 0.16 |
| PPLRNYFLEEDNYKNIKRPPGDIM [USP39] | 3.19 ± 0.19 | 3.37 ± 0.17 | – | – |
| PPLSGRSTPKLTSRSAAQDLDRMG [PPFIA4] | 4.49 ± 0.19 | 4.62 ± 0.096 | – | – |
| PPPVESELALFQMSVLWLEHDRET [KLHL14] | 3.18 ± 0.085 | 3.25 ± 0.23 | – | – |
| PPSEPVPSLEDISCNTWPSMPSYS [TBX5] | 4.269 ± 0.038 | 4.38 ± 0.19 | – | – |
| PPYQGGPPRPPMGMRPPVMSQGGR [ZNF207] | 4.68 ± 0.34 | 4.91 ± 0.16 | – | – |
| PQELLEWELVVLGKLKWNLAAVTP [CCND2] | 2.47 ± 0.77 | 2.36 ± 0.57 | – | – |
| PQELLQSQDFVGEKLGSGEPSHSV [ATE1] | 5.11 ± 0.17 | 5.43 ± 0.064 | – | – |
| PQGDEEDIASRYPTLWTEQVKSRQ [SMOC2] | 4.55 ± 0.17 | 4.52 ± 0.091 | – | – |
| PREHHGRGGMLSASAETLPAGFRV [PPFIA4] | 3.5 ± 0.44 | 3.95 ± 0.076 | – | – |
| PRGARCSNGFPERDPPRPGPSRPA [GCH1] | 4.71 ± 0.064 | 4.47 ± 0.38 | – | – |
| PRLQELLGPSPQRDPQAVKERALS [ZNF263] | 4.6 ± 0.27 | 4.65 ± 0.3 | – | – |
| PRNGDQWHEIRQGRLPRIPQVLSQ [WEE1] | 3.12 ± 0.17 | 3.32 ± 0.5 | – | – |

| Sequence | protein stability index [1] | protein stability index [2] | protein stability index (treatment: DMSO, c terminus: native) | protein stability index (treatment: MLN4924 1 uM, 8 h, c terminus: native) |
| --- | --- | --- | --- | --- |
| PRNKTENGLTPKKKIQVNSKPSIQ [ATF6] | 4.24 ± 0.31 | 3.96 ± 0.17 | – | – |
| PSDLDQFSDSSLIEDSQALHKRPK [LURAP1L] | 5.49 ± 0.24 | 5.43 ± 0.11 | – | – |
| PSDPPAMSPGPLDALSSPTSVQEA [C2CD2L] | 5.54 ± 0.18 | 5.42 ± 0.2 | – | – |
| PSLSPGSSCVKYLIFLSNFPFSLL [TSPAN10] | 2.8 ± 0.85 | 2.83 ± 0.6 | – | – |
| PSPSEVITPWTPSPSEKNSSFTWS [SMTNL2] | 4.22 ± 0.095 | 4 ± 0.062 | – | – |
| PTHPSSTHALAEWASRREAFAQRP [CDC25B] | 4 ± 0.26 | 3.91 ± 0.3 | – | – |
| PTIDTGYDSQPQDVLGIRQLERPL [TRAF3IP2] | 4.2 ± 0.28 | 4.4 ± 0.37 | – | – |
| PTPDDHVFRWLAYSYASTHRLMTD [CPXM2] | 2.64 ± 0.49 | 2.62 ± 0.59 | – | – |
| PTPKCLRLCFFPFVENGHSESSGQ [CFHR2] | 2.54 ± 0.093 | 2.72 ± 0.24 | – | – |
| PTRNDLESGLGHFSLRVHTGCHKK | 4.06 ± 0.18 | 4.11 ± 0.18 | – | – |
| PVANSGTKPKTTAIQGISEKEKAE [DLC1] | 5.51 ± 0.28 | 5.68 ± 0.28 | – | – |
| PVGRSWHSLTPVSSDHLFLFGGFT [KLHDC2] | 2.3 ± 0.53 | 1.87 ± 0.096 | – | – |
| PVIIAAVGTRQNEELPCTCPLCTS [RHOBTB3] | 3.76 ± 0.37 | 3.92 ± 0.35 | – | – |
| PVLQSRTGLVYDQNMMNHCNLWDS [HDAC6] | 2.75 ± 0.41 | 2.93 ± 0.33 | – | – |
| PVPSAPVIDLAESLVADNCVTLVW [FSD1] | 2.56 ± 0.37 | 2.1 ± 0.24 | – | – |
| PVRKLYDDCSSTIVEDPQTKCEYM [ESRRG] | 4.47 ± 0.21 | 4.64 ± 0.19 | – | – |
| PYTELRKQPLRKYVTPSDFDQLKQ [EFHC1] | 3.57 ± 0.2 | 3.51 ± 0.11 | – | – |
| PYTPSPSSSRPISPGLSYASHTVG [CCDC6] | 3.84 ± 0.17 | 3.69 ± 0.19 | – | – |
| QAEVLSRQITSPVSGINGDIRAKK [HNF4A] | 5.05 ± 0.22 | 5.09 ± 0.036 | – | – |
| QAFQLPKLGALLSRCRKLVEYFQQ [ZBED1] | 2.52 ± 0.5 | 2.43 ± 0.29 | – | – |
| QALAQAIKEAKEQHPDMSVTKVVV [EPB41L3] | 2.44 ± 0.34 | 2.53 ± 0.27 | – | – |
| QALLRISLDKVQRSLGPRAPSLRR [SERTAD3] | 2.68 ± 0.46 | 2.62 ± 0.36 | – | – |
| QAMEEDLIVGLQGMDLNLEAEALA [HDAC6] | 4.8 ± 0.23 | 4.92 ± 0.25 | – | – |

| Sequence | protein stability index [1] | protein stability index [2] | protein stability index (treatment: DMSO, c terminus: native) | protein stability index (treatment: MLN4924 1 uM, 8 h, c terminus: native) |
| --- | --- | --- | --- | --- |
| QAPGQPPGNQAEHGAVTVGGTSVG [ZBTB22] | 4.9 ± 0.43 | 5.17 ± 0.21 | – | – |
| QCDALIDALNRRKAQLLARVNKEH [TRIM9] | 3.05 ± 0.2 | 3.27 ± 0.23 | – | – |
| QDNNCHFDAALVSFINFFTSVLAT [SLC6A17] | 2.91 ± 0.3 | 2.75 ± 0.3 | – | – |
| QDPLKFYKKIYFCHSCQLYLPSTE [IQUB] | 1.94 ± 0.41 | 2.12 ± 0.66 | – | – |
| QDVVQAADLLLLTDLKTLCCEFLE [GAN] | 2.55 ± 0.13 | 2.6 ± 0.27 | – | – |
| QEILHRDLKLGNFFINEAMELKVG [PLK2] | 2.58 ± 0.25 | 2.76 ± 0.31 | – | – |
| QEPDFIDDIEEKTPISNEVEMESE [KMT2E] | 5.24 ± 0.22 | 5.43 ± 0.23 | – | – |
| QEPEVPCAAVLPGKPGDRNCPEFP [RSPH3] | 5.21 ± 0.12 | 5.13 ± 0.14 | – | – |
| QEVPHEGPMCDLLWSDPDDRGGWG [PPP2CA] | 4.39 ± 0.32 | 4.61 ± 0.2 | – | – |
| QGSQASQAPPVPGPPPGAPHTPQT [NR2F2] | 5.13 ± 0.27 | 5 ± 0.51 | – | – |
| QHYTETALDEIKLLKCVRESDPSD [SRPK2] | 4.82 ± 0.22 | 4.92 ± 0.16 | – | – |
| QLEEKLEIANEDRKHALERFEQEA [CCDC89] | 5.4 ± 0.19 | 5.4 ± 0.12 | – | – |
| QLMTSQFISVFSNLLESKADGIEV [ZER1] | 2.89 ± 0.62 | 2.5 ± 0.54 | – | – |
| QLSRELSTLRNLFKQLPEPLLASS [CEBPB] | 2.28 ± 0.1 | 2.37 ± 0.29 | – | – |
| QMASQSSASHYKLQVIKALKSSGL [M1AP] | 2.82 ± 0.26 | 2.77 ± 0.21 | – | – |
| QMELLLVNKLKWNLAAMTPHDFIE [CCND1] | 2.91 ± 0.6 | 2.71 ± 0.5 | – | – |
| QNNENNISCVERGWSTPPKCRSTI [CFHR2] | 3.97 ± 0.29 | 4.11 ± 0.34 | – | – |
| QNVVVKTLWKHQFAWPFYQPVDAI [BRD3] | 2.31 ± 0.46 | 2.29 ± 0.45 | – | – |
| QPAKKPLLWSDPADNKIVSHLLVA [ESRRG] | 2.36 ± 0.17 | 2.63 ± 0.26 | – | – |
| QPPEFRNESSLASTLKTLLFFTAL [VMA21] | 2.42 ± 0.32 | 2.39 ± 0.11 | – | – |
| QPSQQQQPPPQEEPGTPSSSPDDK [KLHL14] | 5.6 ± 0.26 | 5.59 ± 0.15 | – | – |
| QPYPLPHVRHMAYQLCHALRFLHE [CLK3] | 2.34 ± 0.1 | 2.1 ± 0.23 | – | – |
| QQHRQGRSHHLEMVIQLLAIMCVS [PTGFR] | 2.61 ± 0.51 | 2.12 ± 0.44 | – | – |

| Sequence | protein stability index [1] | protein stability index [2] | protein stability index (treatment: DMSO, c terminus: native) | protein stability index (treatment: MLN4924 1 uM, 8 h, c terminus: native) |
| --- | --- | --- | --- | --- |
| QRFRQFQYREAAGPHEAFNKLWEL [ZNF449] | 2.17 ± 0.18 | 2.33 ± 0.19 | – | – |
| QRGQEPLGPGALHFDLRDDDDAEE [TCF25] | 5.36 ± 0.39 | 5.53 ± 0.33 | – | – |
| QRPLVSVTVSDASWVSELLWSLFV [AUP1] | 2.36 ± 0.2 | 2.14 ± 0.2 | – | – |
| QRPRFITSGGSNIIYVASNHFVWR [VPS39] | 2.12 ± 0.23 | 2.49 ± 0.25 | – | – |
| QSDEEQDSVKVALLETNPYLLALT [CLPTM1] | 3.92 ± 0.19 | 4.16 ± 0.3 | – | – |
| QSWMWRGLTFLLPFLFFGHFWQLF [TMEM120A] | 2.66 ± 1.1 | 2.79 ± 0.25 | – | – |
| QTHSNTIVVSLQSKLASMSNDFKS [STX5] | 2.8 ± 0.11 | 2.92 ± 0.24 | – | – |
| QVDVRFFGHHHQRAWIPSENIQDI [ZMYND11] | 2.74 ± 0.22 | 2.94 ± 0.17 | – | – |
| QVQCHSYTGYCWCVTPNGRPISGT [SMOC2] | 2.08 ± 0.26 | 2.37 ± 0.38 | – | – |
| QVSHDFLETRFKIQQLLEPQQYMA [FBXO34] | 3.85 ± 0.49 | 4.15 ± 0.29 | – | – |
| RACSHLIRLMQRCWQGDPRVRPTF [RIPK4] | 2.87 ± 0.45 | 2.83 ± 0.2 | – | – |
| RALEEVEMKLQKNFLTQRENTIAG [C10orf62] | 3.48 ± 0.081 | 3.73 ± 0.33 | – | – |
| RALLRRFPRMLLVDRLPGLQGALD [ZSWIM9] | 2.49 ± 0.25 | 2.52 ± 0.24 | – | – |
| RCFYTRKDVRRHLVVHTGCKDFLC [PLAGL1] | 2.11 ± 0.47 | 2.19 ± 0.39 | – | – |
| RCLHMDQLQDFNIPQAGGWGPWGP [ADAMTS4] | 2.24 ± 0.35 | 2.24 ± 0.75 | – | – |
| RCMQCDAKFDFLTRKHHCRRCGKC [ZFYVE21] | 3.94 ± 0.34 | 4.3 ± 0.3 | – | – |
| RCRLSLDDRVLSSLVRDTIARVHG [POP5] | 2.29 ± 0.25 | 2.35 ± 0.27 | – | – |
| RDQIFRYVHDPECVATTGDITVSV [FBXO3] | 2.52 ± 0.2 | 2.42 ± 0.27 | – | – |
| RDSYSSSSRGAPRGGGRGGSRSDR [RBMX] | 5.41 ± 0.24 | 5.44 ± 0.17 | – | – |
| REAGFHQYEVSNFARNGALSTHNW [RSAD1] | 2.97 ± 0.28 | 3.08 ± 0.2 | – | – |
